# Biological target: hexon protein of HAdV-20-42-42 (human adenovirus HAdV-20-42-42 (strain …))
# Experiment: SPR; affinity and interaction half-life told as data not shown; CD46 immobilised, hexon as analyte
# Settings: both partners purified
binder,measurement,value
CD46 (receptor) CEEPPTFEAMELIGKPKPYYEIGERVDYKCKKGYFYIPPLATHTICDRNHTWLPVSDDACYRETCPYIRDPLNGQAVPANGTYEFGYQMHFICNEGYYLIGEEILYCELKGSVAIWSGKPPICEKVLCTPPPKIKNGKHTFSEVEVFEYLDAVTYSCDPAPGPDPFSLIGESTIYCGDNSVWSRAAPECKVVKCRFPVVENGKQISGFGKKFYYKATVMFECDKGFYLDGSDTIVCDSNSTWDPPVPKCLKVLPPSSTKPPALSHSVSTSSTTKSPASSASGPRPTYKPPVSNYPGYPKPEEGILDSLD,Kd,13.5 µM

# — article PMC8549523, “Human AdV-20-42-42, a Promising Novel Adenoviral Vector for Gene Therapy and Vaccine Product Development” (Journal of Virology, 2021)
